Experimental data published in patent publication US20250313625A1.
Where two headings read alike, the source gives them in different places.

Experiments:
[1] = target: mFc tagged human LAG3 ECD recombinant protein (human) (UniProt P18627); assay: competitive FACS: mFc tagged human LAG3 ECD binding to MHC II on Raji cells
[2] = target: mFc tagged human LAG3 ECD recombinant protein (human) (UniProt P18627); assay: as above; remark: listed apart in the source
[3] = target: mFc tagged human LAG3 ECD recombinant protein (human) (UniProt P18627); assay: competitive ELISA: mFc tagged human LAG3 ECD binding to plate coated LSECtin ECD

Sequence of mFc tagged human LAG3 ECD recombinant protein (human) (P18627 23-450): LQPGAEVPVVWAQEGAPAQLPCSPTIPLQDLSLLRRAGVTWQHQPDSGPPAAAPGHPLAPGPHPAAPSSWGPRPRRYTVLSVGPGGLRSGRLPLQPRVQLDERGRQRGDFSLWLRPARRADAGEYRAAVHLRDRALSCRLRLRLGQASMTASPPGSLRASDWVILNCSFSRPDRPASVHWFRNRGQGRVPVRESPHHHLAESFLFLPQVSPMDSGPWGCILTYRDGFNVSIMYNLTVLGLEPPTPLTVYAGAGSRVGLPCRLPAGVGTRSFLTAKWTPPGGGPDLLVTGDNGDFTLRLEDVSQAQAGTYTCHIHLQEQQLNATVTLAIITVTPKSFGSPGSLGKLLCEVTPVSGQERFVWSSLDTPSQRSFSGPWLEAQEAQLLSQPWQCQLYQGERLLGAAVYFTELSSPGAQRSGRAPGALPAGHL

## hIgG4 (antibody)
[1]
  %Blocking at 2 nM: 5.7%
  %Blocking at 8 nM: 3.4%
[2]
  %Blocking at 8 nM: 10.9%
[3]
  %Blocking at 4 nM: 1.3%
  %Blocking at 20 nM: 5.6%
  %Blocking at 100 nM: 7.4%
